The target of experiment [1] is WT-A34F, A34F point mutant of wild-type Gβ1 (Streptococcus). As to the kind of experiment: SEC; analytical size-exclusion chromatography, Superdex 200 Increase; 1 mL of protein at 1 mM loaded; 10 mM sodium phosphate buffer pH 7.4, 1 mL/min; elution time compared with monomeric (wild type) and dimeric (WT-A34F) controls; self-association, monomer or dimer. In general terms: SEC sorts molecules by how far they enter the pores of the column.

Experiment [2] addresses WT-A34F/V39L double mutant of wild-type Gβ1 (Streptococcus). Briefly: NMR titration.
For experiment [3] the target is unchanged. As to the kind of experiment: SEC; analytical size-exclusion chromatography, Superdex 200 Increase; 1 mL of protein at 1 mM loaded; 10 mM sodium phosphate buffer pH 7.4, 1 mL/min; elution time compared with monomeric (wild type) and dimeric (WT-A34F) controls; self-association, monomer or dimer.

Consider “WT-A34F, A34F point mutant of wild-type Gβ1 (domain or fragment)”, for which, in experiment [1], the stoichiometry N (as a rule, a count of units in the complex or per binding partner) was 2.

For “WT-A34F/V39L double mutant of wild-type Gβ1 (domain or fragment)”, the Kd – broadly, a measure of binding affinity in units of concentration – in experiment [2] was determined as 116 µM. This substance gave a stoichiometry N in experiment [3] of 2.

The values are drawn from publication PMC6879633.
